Data reported in publication PMC4395007.

Target: BG505 SOSIP.664 gp140 trimer (HIV-1) (UniProt Q2N0S6)
Assay: negative-stain electron microscopy

Question: How did the stoichiometry N (Fab per trimer) turn out when CAP256-VRC26.09 Fab was run?
Answer: 1
